Source: patent US20260250363A1
Like-named read-outs stand apart in the source and are kept apart here.

Legend:
[1] = molecular target: SARS-CoV-2 +E484K B.1.1.7 Spike Protein (R&D, Cat. #10824-CV) (SARS-CoV-2) (UniProt P0DTC2); assay: BLI (ForteBio), mAb on AHC sensor, spike in solution
[2] = molecular target: SARS-CoV-2 +E484K B.1.1.7 Spike Protein (R&D, Cat. #10824-CV) (SARS-CoV-2) (UniProt P0DTC2); assay: competition ELISA: blocks biotin-ACE2 binding to coated spike
[3] = molecular target: SARS-CoV-2 +E484K B.1.1.7 Spike Protein (R&D, Cat. #10824-CV) (SARS-CoV-2) (UniProt P0DTC2); assay: as above; remark: listed apart in the source
[4] = molecular target: SARS-CoV-2 +E484K B.1.1.7 Spike Protein (R&D, Cat. #10824-CV) (SARS-CoV-2) (UniProt P0DTC2); assay: direct ELISA on coated spike

Substance: Casirivimab (antibody)
- Kd [1]: 3.4 nM
- IC50 [2]: 3.3 nM
- IC50 [3]: 3.13 nM
- EC50 [4]: 0.0584 nM

Substance: Imdevimab (antibody)
- Kd [1]: 0.831 nM
- EC50 [4]: 0.0505 nM
